Among the data in PMC9018508 are Kd values, retold here.

The term Kd denotes the concentration at which binding is half-saturated. Read a low Kd as a tighter complex.

For the test, the target named is CD40L (UniProt P29965). Nature of the test: SPR. (In general: In SPR one partner is held on a chip, and binding of the other changes the refractive index at the surface.)
Sequence of UniProt P29965 (P29965 116-261): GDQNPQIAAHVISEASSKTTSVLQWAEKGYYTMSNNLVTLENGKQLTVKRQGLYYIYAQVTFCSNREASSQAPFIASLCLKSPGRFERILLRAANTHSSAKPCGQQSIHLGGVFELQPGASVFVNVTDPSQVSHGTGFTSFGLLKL

Substance 5c8Ile^L98 → 7-HCAA Fab gave a Kd of 41.6 nM.
